Test [1] concerns the target T1, recombinant αvβ8 ectodomain (UniProt P06756 31-992; P26012 43-684, limits assumed).
T1 construct: extracellular domain; the ELISA and the reporter assays say only 'recombinant αvβ8'; also called recombinant integrin αvβ8; immobilized αvβ8
In words: kinetic exclusion assay (KinExA). The procedure: Affinity for the antibodies described in the Examples was determined using a kinetic exclusion assay format. KinExA (https://www.sapidyne.com). The affinity was calculated as follows: […]
In general terms: A kinetic exclusion assay measures how much of one partner remains free in solution.

Test [2] concerns the target recombinant integrin αvβ1 (UniProt P06756 31-992; P05556 21-728). In words: ELISA: plate coated with antibody (2 µg/ml), recombinant integrin added, detected with 8B8-biotin and Streptavidin-HRP. As to the method: (§1) ELISA plates were coated with antibodies (2 μg/ml), washed, blocked with BSA, and then recombinant integrins were added at the indicated concentrations. After a brief incubation at RT, wells were washed and bound integrin detected with biotin conjugated anti-αv (8B8-biotin, 1 μg/ml) followed by Streptavidin-HRP. […] Antibodies were incubated at the indicated concentrations for 15 min at 4° C. and after washing detected with anti-mouse-PE.
A general note: ELISA stands for enzyme-linked immunosorbent assay.

For test [3], the target named is recombinant integrin αvβ3 (UniProt P06756 31-992; P05106 27-718). The test is described as above. The procedure:
as §1

Test [4] concerns the target recombinant integrin αvβ5 (UniProt P06756 31-992; P18084 24-719). The test is described as above. As to the method: as §1
Test [5] has as its target T2, recombinant integrin αvβ6 (UniProt P06756 31-992; P18564 22-707, limits assumed). The description is as above. The procedure: as §1
The target of test [6] is T3, integrin αvβ8 on human ovarian carcinoma line OVCAR3 (human, UniProt P06756 31-1048; P26012 43-769).
T3 construct: whole, on cells; also called OVCAR3 cells
In words: flow cytometry on OVCAR3 cells, 15 min at 4 °C, detection with anti-mouse-PE, MFI against antibody concentration, KaleidaGraph fit. As to the method: as §1
For orientation: In flow cytometry, cells or beads pass a laser one at a time.

The target of test [7] is T3, integrin αvβ8 on human ovarian …. In words: competition flow cytometry on OVCAR3 cells: fixed ADWA11 2.4 (chimeric, murine IgG2a CH2/CH3) with titrated fully human C6D4 F12, 15 min at 4 °C, ADWA11 2.4 detected with anti-mouse (H+L) PE. The procedure: (§2) All antibodies were produced in CHO cells. […] Primary […] were incubated at 4° C. for 15 min.
Test [8] deals with T1, recombinant αvβ8 ectodomain. In words: sandwich ELISA: antibody coated at 2 µg/ml, recombinant integrin titrated, bound integrin detected with anti-αv 8B8-biotin and streptavidin-HRP. The procedure:
ELISA plates were coated with antibodies (2 μg/ml), washed, blocked with BSA, and then recombinant integrins were added at the indicated concentrations. After a brief incubation at RT, wells were washed and bound integrin detected with biotin conjugated anti-αv (8B8-biotin, 1 μg/ml) followed by Streptavidin-HRP.

For test [9] the target is unchanged. In words: cell-based or functional assay.
The target is the same in test [10]. The experiment in a line: cell-based or functional assay. This is another data set of the same source.
In test [11] the target is T3, integrin αvβ8 on human ovarian …. The experiment in a line: flow cytometry on OVCAR3 cells, 15 min at 4 °C, detection with anti-mouse (H+L)-PE, MFI against nM antibody. The procedure: as §2
Test [12] has as its target T2, recombinant integrin αvβ6. In words: ELISA on coated integrin (1 µg/ml), antibody binding read as A450; antibody concentration not given.

Where a chain is given by its changes, count along the chain named.

T2 sequence (P06756 31-992 limits assumed, chain 1 of 2): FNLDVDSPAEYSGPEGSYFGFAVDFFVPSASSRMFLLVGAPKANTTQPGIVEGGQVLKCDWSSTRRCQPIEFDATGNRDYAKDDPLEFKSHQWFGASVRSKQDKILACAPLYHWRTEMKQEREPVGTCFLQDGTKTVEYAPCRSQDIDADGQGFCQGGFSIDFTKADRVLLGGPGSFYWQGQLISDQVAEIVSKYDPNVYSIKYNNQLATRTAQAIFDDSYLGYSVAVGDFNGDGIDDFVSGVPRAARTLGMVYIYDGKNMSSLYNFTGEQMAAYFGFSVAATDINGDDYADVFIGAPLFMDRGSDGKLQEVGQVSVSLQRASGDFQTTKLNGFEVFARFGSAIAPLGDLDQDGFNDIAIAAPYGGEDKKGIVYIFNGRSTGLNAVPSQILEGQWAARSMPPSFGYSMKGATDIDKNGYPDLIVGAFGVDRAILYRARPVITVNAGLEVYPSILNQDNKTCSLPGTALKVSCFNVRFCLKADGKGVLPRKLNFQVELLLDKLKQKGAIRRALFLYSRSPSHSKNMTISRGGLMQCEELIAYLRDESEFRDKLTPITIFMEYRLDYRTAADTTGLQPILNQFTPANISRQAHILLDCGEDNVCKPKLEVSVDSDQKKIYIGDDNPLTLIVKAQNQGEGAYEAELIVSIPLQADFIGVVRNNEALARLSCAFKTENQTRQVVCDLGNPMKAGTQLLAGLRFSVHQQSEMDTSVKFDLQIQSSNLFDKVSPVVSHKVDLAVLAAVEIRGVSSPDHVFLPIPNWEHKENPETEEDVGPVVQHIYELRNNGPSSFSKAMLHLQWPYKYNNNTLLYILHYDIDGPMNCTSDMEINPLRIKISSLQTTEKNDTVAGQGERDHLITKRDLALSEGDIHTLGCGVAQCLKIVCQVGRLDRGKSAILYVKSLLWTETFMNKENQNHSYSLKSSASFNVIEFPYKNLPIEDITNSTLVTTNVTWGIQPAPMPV
T2 sequence (P18564 22-707 limits assumed, chain 2 of 2): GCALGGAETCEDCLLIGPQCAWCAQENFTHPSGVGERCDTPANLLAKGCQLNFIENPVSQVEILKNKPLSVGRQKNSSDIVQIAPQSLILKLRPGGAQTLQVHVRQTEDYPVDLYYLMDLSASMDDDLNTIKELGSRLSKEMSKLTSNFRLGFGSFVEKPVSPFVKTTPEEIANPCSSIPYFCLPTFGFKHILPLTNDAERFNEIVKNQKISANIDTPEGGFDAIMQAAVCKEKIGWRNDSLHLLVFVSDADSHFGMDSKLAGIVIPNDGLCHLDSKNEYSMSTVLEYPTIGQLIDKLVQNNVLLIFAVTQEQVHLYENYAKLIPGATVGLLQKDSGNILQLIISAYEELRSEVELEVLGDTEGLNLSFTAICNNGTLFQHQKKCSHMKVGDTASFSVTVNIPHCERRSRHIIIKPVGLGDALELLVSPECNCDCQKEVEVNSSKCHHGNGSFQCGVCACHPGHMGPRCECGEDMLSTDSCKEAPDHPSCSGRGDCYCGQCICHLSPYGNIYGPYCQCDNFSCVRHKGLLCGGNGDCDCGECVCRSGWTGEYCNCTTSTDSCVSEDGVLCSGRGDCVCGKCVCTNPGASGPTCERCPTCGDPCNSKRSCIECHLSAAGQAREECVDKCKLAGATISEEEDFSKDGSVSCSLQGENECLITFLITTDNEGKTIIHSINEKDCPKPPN
T1 sequence (P06756 31-992 limits assumed, chain 1 of 2): as the sequence (P06756 31-992 limits assumed, chain 1 of 2) above
T1 sequence (P26012 43-684 limits assumed, chain 2 of 2): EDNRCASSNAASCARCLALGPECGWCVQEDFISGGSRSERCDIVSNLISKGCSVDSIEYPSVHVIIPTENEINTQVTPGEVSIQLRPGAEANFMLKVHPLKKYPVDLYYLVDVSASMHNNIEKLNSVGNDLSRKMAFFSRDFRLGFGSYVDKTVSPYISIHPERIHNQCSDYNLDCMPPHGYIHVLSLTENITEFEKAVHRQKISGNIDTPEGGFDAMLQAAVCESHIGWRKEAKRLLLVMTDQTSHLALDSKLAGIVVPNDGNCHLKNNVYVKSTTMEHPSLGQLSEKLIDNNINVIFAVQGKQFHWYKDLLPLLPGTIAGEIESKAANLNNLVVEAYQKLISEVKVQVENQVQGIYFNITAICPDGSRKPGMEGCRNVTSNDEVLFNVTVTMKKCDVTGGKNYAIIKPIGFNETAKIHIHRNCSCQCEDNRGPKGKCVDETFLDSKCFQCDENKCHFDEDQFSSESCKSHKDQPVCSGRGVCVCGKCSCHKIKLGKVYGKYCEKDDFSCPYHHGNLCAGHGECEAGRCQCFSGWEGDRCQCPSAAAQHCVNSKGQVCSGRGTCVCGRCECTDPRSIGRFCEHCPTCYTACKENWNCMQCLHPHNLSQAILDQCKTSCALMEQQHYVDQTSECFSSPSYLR
T3 sequence (P06756 31-1048, chain 1 of 2): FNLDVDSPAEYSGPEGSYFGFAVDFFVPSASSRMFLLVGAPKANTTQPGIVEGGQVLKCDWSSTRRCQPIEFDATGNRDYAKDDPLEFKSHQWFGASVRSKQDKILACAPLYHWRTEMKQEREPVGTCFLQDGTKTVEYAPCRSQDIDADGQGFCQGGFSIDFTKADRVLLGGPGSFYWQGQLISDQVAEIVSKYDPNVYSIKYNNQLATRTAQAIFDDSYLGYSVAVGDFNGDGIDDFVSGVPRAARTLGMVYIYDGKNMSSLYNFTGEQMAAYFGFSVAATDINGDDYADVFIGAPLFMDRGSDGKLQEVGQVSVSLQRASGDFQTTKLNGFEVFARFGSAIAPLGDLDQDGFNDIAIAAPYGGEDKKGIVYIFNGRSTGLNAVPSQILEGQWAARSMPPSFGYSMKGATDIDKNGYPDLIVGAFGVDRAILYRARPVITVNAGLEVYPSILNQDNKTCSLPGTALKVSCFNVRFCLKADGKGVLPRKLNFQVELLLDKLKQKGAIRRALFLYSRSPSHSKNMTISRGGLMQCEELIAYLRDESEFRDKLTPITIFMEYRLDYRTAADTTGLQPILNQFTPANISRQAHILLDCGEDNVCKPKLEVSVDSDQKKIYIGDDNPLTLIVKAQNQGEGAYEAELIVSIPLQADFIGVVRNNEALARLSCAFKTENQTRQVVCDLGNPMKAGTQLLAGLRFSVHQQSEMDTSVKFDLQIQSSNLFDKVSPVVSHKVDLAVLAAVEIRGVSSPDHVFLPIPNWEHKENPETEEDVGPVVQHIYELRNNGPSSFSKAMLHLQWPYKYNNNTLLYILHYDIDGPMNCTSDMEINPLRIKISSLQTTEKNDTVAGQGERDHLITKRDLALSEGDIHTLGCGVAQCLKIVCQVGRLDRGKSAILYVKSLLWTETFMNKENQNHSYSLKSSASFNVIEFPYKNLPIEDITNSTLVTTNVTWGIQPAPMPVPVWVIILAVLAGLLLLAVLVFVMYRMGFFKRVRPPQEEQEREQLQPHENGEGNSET
T3 sequence (P26012 43-769, chain 2 of 2): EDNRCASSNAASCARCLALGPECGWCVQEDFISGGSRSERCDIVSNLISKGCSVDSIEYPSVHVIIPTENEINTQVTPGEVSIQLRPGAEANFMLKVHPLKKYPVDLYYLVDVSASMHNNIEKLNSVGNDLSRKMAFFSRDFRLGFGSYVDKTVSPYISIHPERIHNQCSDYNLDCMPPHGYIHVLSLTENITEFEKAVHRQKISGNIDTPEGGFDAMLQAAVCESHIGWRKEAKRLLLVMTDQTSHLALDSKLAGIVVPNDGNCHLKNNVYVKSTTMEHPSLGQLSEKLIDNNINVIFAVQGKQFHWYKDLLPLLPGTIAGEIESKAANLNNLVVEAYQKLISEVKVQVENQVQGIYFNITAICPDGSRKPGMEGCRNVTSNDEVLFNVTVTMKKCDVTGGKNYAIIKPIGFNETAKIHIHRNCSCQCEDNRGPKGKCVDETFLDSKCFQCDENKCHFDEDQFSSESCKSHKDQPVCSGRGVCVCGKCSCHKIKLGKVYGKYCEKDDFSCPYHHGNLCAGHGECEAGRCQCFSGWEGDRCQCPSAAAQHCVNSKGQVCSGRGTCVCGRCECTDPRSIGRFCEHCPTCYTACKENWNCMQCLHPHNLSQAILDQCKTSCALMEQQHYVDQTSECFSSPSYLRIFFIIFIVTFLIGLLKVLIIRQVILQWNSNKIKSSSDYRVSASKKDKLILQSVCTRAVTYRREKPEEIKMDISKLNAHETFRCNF
recombinant integrin αvβ1, sequence (P06756 31-992 limits assumed, chain 1 of 2): as the sequence (P06756 31-992 limits assumed, chain 1 of 2) above
recombinant integrin αvβ1, sequence (P05556 21-728 limits assumed, chain 2 of 2): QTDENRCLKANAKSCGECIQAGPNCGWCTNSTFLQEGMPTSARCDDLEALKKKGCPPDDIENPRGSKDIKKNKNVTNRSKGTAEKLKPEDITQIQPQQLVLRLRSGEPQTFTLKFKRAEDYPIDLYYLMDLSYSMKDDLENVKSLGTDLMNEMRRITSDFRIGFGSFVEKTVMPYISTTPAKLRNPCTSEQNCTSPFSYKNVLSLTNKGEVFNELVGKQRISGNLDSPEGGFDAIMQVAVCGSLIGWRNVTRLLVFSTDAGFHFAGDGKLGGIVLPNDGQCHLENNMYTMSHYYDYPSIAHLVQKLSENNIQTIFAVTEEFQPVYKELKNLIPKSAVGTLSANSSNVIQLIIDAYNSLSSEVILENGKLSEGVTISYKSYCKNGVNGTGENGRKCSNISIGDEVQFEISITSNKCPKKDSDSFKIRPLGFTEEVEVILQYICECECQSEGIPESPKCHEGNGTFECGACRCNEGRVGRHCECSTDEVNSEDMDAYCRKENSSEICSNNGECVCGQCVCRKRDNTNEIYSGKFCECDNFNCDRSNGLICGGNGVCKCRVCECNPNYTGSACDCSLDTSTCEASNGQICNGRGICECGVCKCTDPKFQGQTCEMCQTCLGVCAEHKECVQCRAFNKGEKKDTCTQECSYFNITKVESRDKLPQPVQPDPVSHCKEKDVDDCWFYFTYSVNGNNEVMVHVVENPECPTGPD

B1: C6D4 IgG 2a (antibody, V domains shown)
VH: QIQLVQSGPELKKPGETVKISCKASGYTFTDYSMHWVKQAPGKGLKWVARINTETGEPTFADDFRGRFAVSLETSASTAYLQINNLKNEDTATYFCAIFYYGRDSWGQGTTLTVSS
VL: DIVMTQSPSSLAVSAGEKVTMSCKSSQSLLNSRTRKNYLAWYQQKPGQSPRLLIYWASTRESGVPDRFTGSGSGTDFTLTISSVQAEDLAVYYCKQSYNLLSFGAGTKLELKR
notes: IgG2a
Usually Kd stands for the equilibrium constant for the complex coming apart. In the case of B1, the Kd in test [1] amounted to 1.3 nM.

B2: antibody with heavy chain with the C6 VH1 (D to K) mutation expressed with light chain D4 (antibody, V domains shown)
VH: QIQLVQSGAEVKKPGASVKISCKASGYTFTKYSMHWVRQAPGQGLEWVARINTETGEPTFADDFRGRFTVTLDTSTSTAYLEIRSLRSDDTAVYFCAIFYYGRDTWGQGTTLTVSS
VL: EIVMTQSPATLSVSPGERVTMSCKSSQSLLNSRSRKNYLAWYQQKPGQAPRLLIYWASTRESGVPARFSGSGSGTEFTLTISSVQSEDFAVYYCKQSYNLLSFGQGTVLEIKR
notes: Single mutant of HuC6D4
Turning to B2, the binding result in [2], in test [3], in test [4] and in test [5] was “no binding” each time. In test [6], the dissociation constant Kd is 2.5 nM.

B3: fully human C6D4 F12 (version of huC6D4F12 where CH1-3 were all human) (antibody, V domains shown)
VH: B2 VH
VL: B2 VL with N31H
As to B3, the “IC50 (read off the curve)” value in [7] is approximately 0.1 µg/mL.

B4: C6-TGFβ1RGD (antibody, V domains shown)
VH: B2 VH with K31D
VL: EIVMTQSPATLSVSPGERVTMSCKSSQSLLRRGDLATIHGNALAWYQQKPGQAPRLLIYWASTRESGVPARFSGSGSGTEFTLTISSVQSEDFAVYYCKQSYNLLSFGQGTVLEIKR
notes: also called C6-TGF-TGFβ1RGD
With B4, the binding result in test [8] is “binds”.

B5: antibody with light chain D4 VL1 (N to H) mutation expressed with heavy chain C6 (antibody, V domains shown)
VH: B2 VH with K31D
VL: B2 VL with N31H
notes: Single mutant of HuC6D4
As for B5, the binding result in test [2], in [3], in test [4] and in test [5] was “no binding” each time. Binding in [6] was characterised by a dissociation constant (Kd) of 4.7 nM.

B6: HuC6D4F12 (antibody, V domains shown)
VH: B2 VH
VL: B2 VL with N31H
notes: Whole antibody; also called HC6D4F12; HuC6D412
As for B6, the “inhibition of TGF-β activation (immobilized αvβ8 at 1 µg/ml and TGF-β1/GARP expressing TMLC reporter cells); fold against ADWA11 2.4” value in test [9] was approximately 77 fold. Besides, the Kd in test [1] came out at 0.00236 nM; in test [11], 1.4 nM; in test [6], 3.1 nM. Besides, the “IC50 of inhibition of TGF-β activation (TMLC reporter cells expressing TGF-β1/GARP on immobilized αvβ8)” value in [10] is 0.75 µg/mL. The binding result in [12] is reported as “no binding”.

B7: HuC6D4 (antibody, V domains shown)
VH: B2 VH with K31D
VL: B2 VL
notes: Whole antibody; also called Human C6D4; Humanized C6D4
In the case of B7, the Kd in [1] was 0.0821 nM; in [6], 4.9 nM.

B8: ADWA11 2.4 (chimeric version: humanized variable domains and CH1, murine IgG2a CH2/CH3) (antibody, V domains shown)
VH: EVQLVESGGGLVQPGGSLRLSCAASGFNIKDYYMNWVRQAPGKGLEWVGWIDPDQGNTIYEPKFQGRFTISADTSKNSAYLQMNSLRAEDTAVYYCARRLLMDYWGQGTLVTVSS
VL: DIQMTQSPSSLSASVGDRVTITCRSTKSLSHFNGNTYLFWYQQKPGKAPKRLIYYMSSLASGVPSRFSGSGSGTDFTLTISSLQPEDFATYYCQQSLEYPFTFGGGTKVEIKR
As for B8, the “IC50 of inhibition of TGF-β activation (TMLC reporter cells expressing TGF-β1/GARP on immobilized αvβ8)” value in test [10] turned out to be 57.7 µg/mL. Besides, the Kd in [11] is 26.3 nM.

Values taken from US20210277125A1 (University of California, published 2021).
